Assays:
[1] = molecular target: glycosylated human proBNP (HyTest, Turku, Finland; Catalog No. 8GOB2) (human); assay: sandwich CMIA, capture 15C4, analyte 0.0 pM (blank)
[2] = molecular target: human NT-pro B-type natriuretic peptide (HyTest, Turku, Finland; Catalog No. 8NT1) (human); assay: as above
[3] = molecular target: human pro B-type natriuretic peptide (HyTest, Turku, Finland; Catalog No. 8PRO8) (human); assay: as above
[4] = molecular target: glycosylated human proBNP (HyTest, Turku, Finland; Catalog No. 8GOB2) (human); assay: sandwich CMIA, capture 15C4, 288.7 pM, against human NT-proBNP
[5] = molecular target: human pro B-type natriuretic peptide (HyTest, Turku, Finland; Catalog No. 8PRO8) (human); assay: as above
[6] = molecular target: glycosylated human proBNP (HyTest, Turku, Finland; Catalog No. 8GOB2) (human); assay: sandwich CMIA, capture 15F11, analyte 43.3 pM
[7] = molecular target: human NT-pro B-type natriuretic peptide (HyTest, Turku, Finland; Catalog No. 8NT1) (human); assay: sandwich CMIA, capture 15F11, analyte 43.3 pM
[8] = molecular target: human pro B-type natriuretic peptide (HyTest, Turku, Finland; Catalog No. 8PRO8) (human); assay: sandwich CMIA, capture 15F11, analyte 43.3 pM
[9] = molecular target: glycosylated human proBNP (HyTest, Turku, Finland; Catalog No. 8GOB2) (human); assay: sandwich CMIA, capture 15C4, 577.4 pM, against human NT-proBNP
[10] = molecular target: human pro B-type natriuretic peptide (HyTest, Turku, Finland; Catalog No. 8PRO8) (human); assay: as above
[11] = molecular target: glycosylated human proBNP (HyTest, Turku, Finland; Catalog No. 8GOB2) (human); assay: sandwich CMIA, capture 15F11, analyte 288.7 pM
[12] = molecular target: human NT-pro B-type natriuretic peptide (HyTest, Turku, Finland; Catalog No. 8NT1) (human); assay: sandwich CMIA, capture 15F11, analyte 288.7 pM
[13] = molecular target: human pro B-type natriuretic peptide (HyTest, Turku, Finland; Catalog No. 8PRO8) (human); assay: sandwich CMIA, capture 15F11, analyte 288.7 pM
[14] = molecular target: glycosylated human proBNP (HyTest, Turku, Finland; Catalog No. 8GOB2) (human); assay: sandwich CMIA, capture 15C4, analyte 86.6 pM
[15] = molecular target: human NT-pro B-type natriuretic peptide (HyTest, Turku, Finland; Catalog No. 8NT1) (human); assay: sandwich CMIA, capture 15C4, analyte 86.6 pM
[16] = molecular target: human pro B-type natriuretic peptide (HyTest, Turku, Finland; Catalog No. 8PRO8) (human); assay: sandwich CMIA, capture 15C4, analyte 86.6 pM
[17] = molecular target: glycosylated human proBNP (HyTest, Turku, Finland; Catalog No. 8GOB2) (human); assay: sandwich CMIA, capture 15C4, 86.6 pM, against human NT-proBNP
[18] = molecular target: human pro B-type natriuretic peptide (HyTest, Turku, Finland; Catalog No. 8PRO8) (human); assay: as above
[19] = molecular target: glycosylated human proBNP (HyTest, Turku, Finland; Catalog No. 8GOB2) (human); assay: sandwich CMIA, capture 15F11, analyte 86.6 pM
[20] = molecular target: human NT-pro B-type natriuretic peptide (HyTest, Turku, Finland; Catalog No. 8NT1) (human); assay: sandwich CMIA, capture 15F11, analyte 86.6 pM
[21] = molecular target: human pro B-type natriuretic peptide (HyTest, Turku, Finland; Catalog No. 8PRO8) (human); assay: sandwich CMIA, capture 15F11, analyte 86.6 pM
[22] = molecular target: glycosylated human proBNP (HyTest, Turku, Finland; Catalog No. 8GOB2) (human); assay: sandwich CMIA, capture 15C4, analyte 577.4 pM
[23] = molecular target: human NT-pro B-type natriuretic peptide (HyTest, Turku, Finland; Catalog No. 8NT1) (human); assay: sandwich CMIA, capture 15C4, analyte 577.4 pM
[24] = molecular target: human pro B-type natriuretic peptide (HyTest, Turku, Finland; Catalog No. 8PRO8) (human); assay: sandwich CMIA, capture 15C4, analyte 577.4 pM
[25] = molecular target: glycosylated human proBNP (HyTest, Turku, Finland; Catalog No. 8GOB2) (human); assay: sandwich CMIA, capture 15C4, analyte 43.3 pM
[26] = molecular target: human NT-pro B-type natriuretic peptide (HyTest, Turku, Finland; Catalog No. 8NT1) (human); assay: sandwich CMIA, capture 15C4, analyte 43.3 pM
[27] = molecular target: human pro B-type natriuretic peptide (HyTest, Turku, Finland; Catalog No. 8PRO8) (human); assay: sandwich CMIA, capture 15C4, analyte 43.3 pM
[28] = molecular target: human pro B-type natriuretic peptide (HyTest, Turku, Finland; Catalog No. 8PRO8) (human); assay: sandwich CMIA, 15C4 (63-71) with 13G12 (13-20), against human NT-proBNP
[29] = molecular target: glycosylated human proBNP (HyTest, Turku, Finland; Catalog No. 8GOB2) (human); assay: sandwich CMIA, capture 15C4, analyte 288.7 pM
[30] = molecular target: human NT-pro B-type natriuretic peptide (HyTest, Turku, Finland; Catalog No. 8NT1) (human); assay: sandwich CMIA, capture 15C4, analyte 288.7 pM
[31] = molecular target: human pro B-type natriuretic peptide (HyTest, Turku, Finland; Catalog No. 8PRO8) (human); assay: sandwich CMIA, capture 15C4, analyte 288.7 pM
[32] = molecular target: glycosylated human proBNP (HyTest, Turku, Finland; Catalog No. 8GOB2) (human); assay: sandwich CMIA, capture 15F11, analyte 577.4 pM
[33] = molecular target: human NT-pro B-type natriuretic peptide (HyTest, Turku, Finland; Catalog No. 8NT1) (human); assay: sandwich CMIA, capture 15F11, analyte 577.4 pM
[34] = molecular target: human pro B-type natriuretic peptide (HyTest, Turku, Finland; Catalog No. 8PRO8) (human); assay: sandwich CMIA, capture 15F11, analyte 577.4 pM
[35] = molecular target: glycosylated human proBNP (HyTest, Turku, Finland; Catalog No. 8GOB2) (human); assay: sandwich CMIA, capture 15F11, analyte 0.0 pM (blank)
[36] = molecular target: human NT-pro B-type natriuretic peptide (HyTest, Turku, Finland; Catalog No. 8NT1) (human); assay: as above
[37] = molecular target: human pro B-type natriuretic peptide (HyTest, Turku, Finland; Catalog No. 8PRO8) (human); assay: as above
[38] = molecular target: glycosylated human proBNP (HyTest, Turku, Finland; Catalog No. 8GOB2) (human); assay: sandwich CMIA, capture 15C4, 43.3 pM, against human NT-proBNP
[39] = molecular target: human pro B-type natriuretic peptide (HyTest, Turku, Finland; Catalog No. 8PRO8) (human); assay: as above
[40] = molecular target: human pro B-type natriuretic peptide (HyTest, Turku, Finland; Catalog No. 8PRO8) (human); assay: sandwich CMIA, 15C4 (63-71) with 18H5 (13-20), against human NT-proBNP

Chain of human NT-pro B-type natriuretic peptide (HyTest, Turku, Finland; Catalog No. 8NT1) (human) (chain, as listed by the source): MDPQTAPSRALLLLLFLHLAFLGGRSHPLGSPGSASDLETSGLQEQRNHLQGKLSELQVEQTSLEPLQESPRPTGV
Chain of glycosylated human proBNP (HyTest, Turku, Finland; Catalog No. 8GOB2) (human) (chain, as listed by the source): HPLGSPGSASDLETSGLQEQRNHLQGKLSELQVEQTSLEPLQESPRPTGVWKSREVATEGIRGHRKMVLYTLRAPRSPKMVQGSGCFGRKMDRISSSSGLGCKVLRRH

| Substance | Analyte rlus [1] | Analyte rlus [2] | Analyte rlus [3] | % Cross-reactivity [4] | Analyte rlus [6] | Analyte rlus [7] | Analyte rlus [8] | % Cross-reactivity [9] | % Cross-reactivity [10] | Analyte rlus [11] | Analyte rlus [12] | Analyte rlus [13] | Analyte rlus [14] | Analyte rlus [15] | Analyte rlus [16] | % Cross-reactivity [17] | % Cross-reactivity [18] | Analyte rlus [19] | Analyte rlus [20] | Analyte rlus [21] | other results |
| --- | --- | --- | --- | --- | --- | --- | --- | --- | --- | --- | --- | --- | --- | --- | --- | --- | --- | --- | --- | --- | --- |
| anti-human NT-proBNP/anti-human proBNP labeled monoclonal antibody 13G12 (HyTest, Turku, Finland) | 892 rlus | 892 rlus | 892 rlus | 0.1% | 798 rlus | 777 rlus | 800 rlus | 0.1% | 11.8% | 831 rlus | 820 rlus | 920 rlus | 912 rlus | 25600 rlus | 4080 rlus | 0.1% | 12.9% | 767 rlus | 761 rlus | 802 rlus | % Cross-reactivity [5]: 12.1%; Analyte rlus [22]: 1240 rlus; Analyte rlus [23]: 309000 rlus; Analyte rlus [24]: 37200 rlus; Analyte rlus [25]: 905 rlus; Analyte rlus [26]: 10300 rlus; Analyte rlus [27]: 2220 rlus; % Cross-reactivity [28]: 10%; Analyte rlus [29]: 967 rlus; Analyte rlus [30]: 131000 rlus; Analyte rlus [31]: 16700 rlus; Analyte rlus [32]: 778 rlus; Analyte rlus [33]: 805 rlus; Analyte rlus [34]: 1080 rlus; Analyte rlus [35]: 841 rlus; Analyte rlus [36]: 841 rlus; Analyte rlus [37]: 841 rlus; % Cross-reactivity [38]: 0.1%; % Cross-reactivity [39]: 14.1% |
| anti-human NT-proBNP/anti-human proBNP labeled monoclonal antibody 18H5 (HyTest, Turku, Finland) | 704 rlus | 704 rlus | 704 rlus | 0.3% | 618 rlus | 621 rlus | 628 rlus | 0.3% | 13.6% | 663 rlus | 708 rlus | 949 rlus | 783 rlus | 39100 rlus | 6590 rlus | 0.2% | 15.3% | 737 rlus | 636 rlus | 664 rlus | % Cross-reactivity [40]: 10%; Analyte rlus [22]: 1580 rlus; Analyte rlus [23]: 337000 rlus; Analyte rlus [24]: 46500 rlus; Analyte rlus [25]: 756 rlus; Analyte rlus [26]: 18000 rlus; Analyte rlus [27]: 3380 rlus; Analyte rlus [29]: 1230 rlus; Analyte rlus [30]: 162000 rlus; Analyte rlus [32]: 754 rlus; Analyte rlus [33]: 664 rlus; Analyte rlus [34]: 1440 rlus; Analyte rlus [35]: 626 rlus; Analyte rlus [36]: 626 rlus; Analyte rlus [37]: 626 rlus; % Cross-reactivity [38]: 0.3%; % Cross-reactivity [39]: 15.5% |
